Results taken from US12129308 (Merck KGaA, dated 2024).

B1: C010100280 (VHH)
VHH: EVQLVESGGGLVQPGGSLRLSCAASGFAFSAAYMSWVRQAPGKGLEWVSSISDDGSKTYYADSVKGRFTISRDNSKNTVYLQMNSLRPEDTAVYYCNTGYGATTTRPGRYWGQGTLVTVSS
B2: C010100687 (bispecific antibody)
chain: EVQLVESGGGLVQPGGSLRLSCAASGFTLAYYSIGWFRQAPGKEREGVSCISSGIDGSTYYADSVKGRFTISRDNAKNTMYLQMNNLKPEDTGVYYCAADPSHYYSEYDCGYYGMDYWGKGTLVTVSSGGGGSGGGGSGGGGSGGGGSGGGGSGGGGSGGGGSEVQLVESGGGLVQPGGSLRLSCAASGSTFIINVVRWYRRAPGKQRELVATISSGGNANYVDSVRGRFTISRDNSKNTVYLQMNSLRPEDTAVYYCNVPTTHYGGVYYGPYWGQGTLVTVSS
B3: C010100700 (bispecific antibody)
chain: EVQLVESGGGLVQPGGSLRLSCAASGRTFSSYAMGWFRQAPGKEREFVAAISWSGGSTYYADSVKGRFTISRDNSKNTVYLQMNSLRPEDTAVYYCTAALAVYGPSRYRYGPVGEYQYWGQGTLVTVSSGGGGSGGGGSGGGGSGGGGSGGGGSGGGGSGGGGSEVQLVESGGGSVQPGGSLRLSCAASGSTFSRYSMNWYRQAPGKQREFVAGISVGRITNYAVSVRGRFTISRDNSEGTGYLQMNSLRPEDTAVYYCNAGGLQGYWGLGTLVTVSSGGGGSGGGGSGGGGSGGGGSGGGGSGGGGSGGGGSEVQLVESGGGLVQPGGSLRLSCAASGSTFIINVVRWYRRAPGKQRELVATISSGGNANYVDSVRGRFTISRDNSKNTVYLQMNSLRPEDTAVYYCNVPTTHYGGVYYGPYWGQGTLVTVSS
B4: C010100692 (bispecific antibody)
chain: EVQLVESGGGLVQPGGSLRLSCAASGFAFSAAYMSWVRQAPGKGLEWVSSISDDGSKTYYADSVKGRFTISRDNSKNTVYLQMNSLRPEDTAVYYCNTGYGATTTRPGRYWGQGTLVTVSSGGGGSGGGGSGGGGSGGGGSGGGGSGGGGSGGGGSEVQLVESGGGLVQPGGSLRLSCAASGRTFSSYTMGWFRQAPGKEREFVAAISWSGGRTYYADSVKGRFTISRDNSKNTVYLQMNSLRPEDTAVYYCAAYRRRRASSNRGLWDYWGQGTLVTVSS
B5: C010100696 (bispecific antibody)
chain: EVQLVESGGGLVQPGGSLRLSCAASGRTFSSYAMGWFRQAPGKEREFVAAISWSGGSTYYADSVKGRFTISRDNSKNTVYLQMNSLRPEDTAVYYCTAALAVYGPSRYRYGPVGEYQYWGQGTLVTVSSGGGGSGGGGSGGGGSGGGGSGGGGSGGGGSGGGGSEVQLVESGGGSVQPGGSLRLSCAASGSTFSRYSMNWYRQAPGKQREFVAGISVGRITNYAVSVRGRFTISRDNSEGTGYLQMNSLRPEDTAVYYCNAGGLQGYWGLGTLVTVSSGGGGSGGGGSGGGGSGGGGSGGGGSGGGGSGGGGSEVQLVESGGGLVQPGGSLRLSCAASGRTFSSYTMGWFRQAPGKEREFVAAISWSGGRTYYADSVKGRFTISRDNSKNTVYLQMNSLRPEDTAVYYCAAYRRRRASSNRGLWDYWGQGTLVTVSS
B6: C010100689 (bispecific antibody)
chain: EVQLVESGGGLVQPGGSLRLSCAASGFAFSAAYMSWVRQAPGKGLEWVSSISDDGSKTYYADSVKGRFTISRDNSKNTVYLQMNSLRPEDTAVYYCNTGYGATTTRPGRYWGQGTLVTVSSGGGGSGGGGSGGGGSGGGGSGGGGSGGGGSGGGGSEVQLVESGGGLVQPGGSLRLSCAASGSTFIINVVRWYRRAPGKQRELVATISSGGNANYVDSVRGRFTISRDNSKNTVYLQMNSLRPEDTAVYYCNVPTTHYGGVYYGPYWGQGTLVTVSS
B7: C010100101 (VHH)
VHH: EVQLVESGGGLVQPGGSLRLSCAASGFTLAYYSIGWFRQAPGKEREGVSCISSGIDGSTYYADSVKGRFTISRDNAKNTMYLQMNNLKPEDTGVYYCAADPSHYYSEYDCGYYGMDYWGKGTLVTVSS

Target: activated human MMP13 (human, UniProt P45452 104-471)
Assay: cell-based or functional assay

Row | Binder | potency, human fluorogenic peptide assay
1 | B1 | 1.01 nM
2 | B2 | 1.57 nM
3 | B3 | 0.0318 nM
4 | B4 | 0.828 nM
5 | B5 | 0.107 nM
6 | B6 | 1.91 nM
7 | B7 | 3.92 nM
